Measurements: CN114573710A

Columns and labels:
[1] = target: CD47 on lymphoma cell lines Raji, Daudi and Romas (UniProt Q08722); test: flow cytometry, Raji cells incubated with CD19-s47-CART supernatant, detected with anti-HA-APC
[2] = target: CD47 on lymphoma cell lines Raji, Daudi and Romas (UniProt Q08722); test: flow cytometry, Romas cells incubated with CD19-s47-CART supernatant, detected with anti-HA-APC
[3] = target: CD47 on lymphoma cell lines Raji, Daudi and Romas (UniProt Q08722); test: flow cytometry, Daudi cells incubated with CD19-s47-CART supernatant, detected with anti-HA-APC

UniProt Q08722, sequence (Q08722 19-323 limits assumed): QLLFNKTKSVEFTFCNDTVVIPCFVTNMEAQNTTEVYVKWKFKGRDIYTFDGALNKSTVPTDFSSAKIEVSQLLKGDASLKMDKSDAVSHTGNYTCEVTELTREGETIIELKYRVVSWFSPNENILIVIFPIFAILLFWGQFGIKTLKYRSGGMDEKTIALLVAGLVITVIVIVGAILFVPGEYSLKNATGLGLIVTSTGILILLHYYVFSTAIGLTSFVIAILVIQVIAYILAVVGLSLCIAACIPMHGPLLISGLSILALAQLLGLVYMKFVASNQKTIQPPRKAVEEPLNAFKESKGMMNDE

结合率 [1]: 100 %
结合率 [2]: 100 %
结合率 [3]: 100 %
B1: 外泌蛋白s47 (抗CD47单链抗体, CD47 ScFv, 末尾连接HA标签) (scFv)
scFv: DVVMTQSPLSLPVTPGEPASISCRSSQSIVYSNGNTYLGWYLQKPGQSPKLLIYKVSNRFSGVPDRFSGSGSGTDFTLKISRVEAEDVGVYHCFQGSHVPYTFGGGTKVEIKGGGGSGGGGSGGGGSQVQLVQSGAEVKKPGASVKVSCKASGYTFTNYNMHWVRQAPGQGLEWIGTIYPGNDDTSYNQKFKDKATLTADKSTSTAYMELSSLRSEDTAVYYCARGGYRAMDYWGQGTLVTVSSYPYDVPDYA
